Experimental data reported in the DeepSol protein solubility set.

assay: soluble on expression in E. coli; label from the status in PepcDB or PDB records

| Sequence | soluble on expression in E. coli |
| --- | --- |
| MHLTCKNGEIKTIMWSNISEQFPVTGYSYWAVGVDITHLKAIEEQLKQQTSELELIFKALPDLCFLTEDDGTIIDYKAGSPTKFYVPAEAFMGKKFYEVLPTSVAQQFQEAINQVKEKGTNVIVEYPLTLNGSIDFFEARCLPLLHDKIMIIVRDITERKKTEELLNKSDTLAAIGQLAAGVAHEVRNPLTVIKGFIQLFQINKEDQERYFDLMLSEIERIEAILQEFLSIAKTDEINTEKKNIYQIFKNVVSLMNTKAIMTNIQVELFTGDKDIIIECSENQLKQVFINILQNSIEAMPNGGGISIHIKEINDDGVIIHVIDEGIGIPEERIKRLGEPFYSTKEKGTGIGLMLSYKIIESHQGTISIRSEVGVGTTVTIYLPKVLNKQSLSNCDDKCIAIRTSSNS | not soluble |
| MSLKHVAVYLRLSRGEDESELDNHKTRLLNRCELNNWSYELYKEIGSGSTIDDRPVMQKLLTDVEKNLYDAVLVVDLDRLSRGNGTDNDRILYSMKVSETLIVVESPYQVLDANNESDEEIILFKGFFARFEFKQINKRMREGKKLAQSRGQWVNSVTPYGYIVNKTTKKLTPSEEEAKVVIMIKDFFFEGKSTSDIAWELNKRKIKPRRATEWRSSSIANILQNEVYVGNIVYNKSVGNKKPSKSKTRVTTPYRRLPEEEWRRVYNAHQPLYSKEEFDRIKQYFECNVKSHKGSEVRTYALTGLCKTPDGKTMRVTQGKKGTDDDLYLFPKKNKHGDSSIYKGISYNVVYETLKEVILQVKDYLDSVLDQNENKDLVEELKEELMKKEDELETIQKAKNRIVQGFLIGLYDEQDSIELKVEKEKEIDEKEKEIEAIKMKIDNAKTVNNSIKKTKIERLLSDVQSAESEKEINRFYKTLIKEIIVDRTDENEAKIKVNFLEGHHHHHH | not soluble |
| MTDHLRGFYKAEFETARKKAHGVIFLHDGKIQGGDSTFLYSGAYSQSGLTVAGNLRGVRYSSDHSRLSVFGIEPFEITFDGVAKDGYVTIEGYAHETPSLPLKAILTRVDD | not soluble |
| SSSLTSENAETKVGVFWDVEECPVPDGVEPSVVCENIKLALEKKGYRPCNVSIRVYGERTNKFKDDFLLADIMFLPAGDEGARFMRMCNDFFCWGNDNRKSTLMVMSRDSTEFASSFVMYKNLNFNILVAQPENVDRKCPVCRKPLEMIITDEWVWESLSAGGDPLPKTQEEPDLSNSCH | soluble |
| MSLTTIKNIESFVYRYPLSKPVITSFGVMNNRPMLILKITDNNGMYGWGEVWCNFPLTGAEHRAKLIDNIFKPLLANFDIITPEKTYEYLVSKTKILSIQSGEPGPIAQCIAGIDIAVHDLIGKVENISLWKKFGGNKNIIPCYASGINPTKPEVTVKDAIKKGYSSFKLKIGFGIKKDLGNIKEIKNILPEKSSLMVDANQAWNLNEAIEACRLLEDLNLCWLEEPIPANSEIKEWIHLKDSTKITLAAGENFNSHREFSSFFQNKVFGYLQPDIAKWGGFTECSKLIKNIIQNKITYCPHYLGGGIGLVASAHLLSASNGKGILEVDINDNPLRSDIVGDIFEKNSGFATLSDIPGLGFEPNLKTISKYLVAHEGHHHHHH | soluble |
| MSGGSSRRYPPELRERAVRMVAEIRGQHDSEWAAISEVARLLGVGCAETVRKWVRQAQVDAGARPGTTTEESAELKRLRRDNAELRRANAILKTASAFFAAELDRPAR | soluble |
| GTGTRFGTDLAKEAKKVHQTTRTVPAKRGTIYDRNGVPIAEDATSYNVYAVIDENYKSATGKILYVEKTQFNKVAEVFHKYLDMEESYVREQLSQPNLKQVSFGAKGNGITYANMMSIKKELEAAEVKGIDFTTSPNRSYPNGQFASSFIGLAQLHENEDGSKSLLGTSGMESSLNSILAGTDGIITYEKDRLGNIVPGTEQVSQRTMDGKDVYTTISSPLQSFMETQMDAFQEKVKGKYMTATLVSAKTGEILATTQRPTFDADTKEGITEDFVWRDILYQSNYEPGSTMKVMMLAAAIDNNTFPGGEVFNSSELKIADATIRDWDVNEGLTGGRMMTFSQGFAHSSNVGMTLLEQKMGDATWLDYLNRFKFGVPTRFGLTDEYAGQLPADNIVNIAQSSFGQGISVTQTQMIRAFTAIANDGVMLEPKFISAIYDPNDQTARKSQKEIVGNPVSKDAASLTRTNMVLVGTDPVYGTMYNHSTGKPTVTVPGQNVALKSGTAQIADEKNGGYLVGLTDYIFSAVSMSPAENPDFILYVTVQQPEHYSGIQLGEFANPILERASAMKDSLNLQTTAKALEQVSQQSPYPMPSVKDISPGDLAEELRRNLVQPIVVGTGTKIKNSSAEEGKNLAPNQQVLILSDKAEEVPDMYGWTKETAETLAKWLNIELEFQGSGSTVQKQDVRANTAIKDIKKITLTLGD | soluble |
| MKDPDRWMDVKEFLPLLAQKEWYTKTRFGYARGHEPVVYVQNIRRYYDVLVRITEPDAPSASGLEDQLAWLEHHHHHH | not soluble |
| MARFNAAFTRIKIMFSRIRGLISCQSNTQTIAPTLSPPSSGHVSFAGIDYPLLPLNHQTPLVFQWFERNPDRFGQNEIPIINTQKNPYLNNIINAAIIEKERIIGIFVDGDFSKGQRKALGKLEQNYRNIKVIYNSDLNYSMYDKKLTTIYLENITKLEAQSASERDEVLLNGVKKSLEDVLKNNPEETLISSHNKDKGHLWFDFYRNLFLLKGSDAFLEAGKPGCHHLQPGGGCIYLDADMLLTDKLGTLYLPDGIAIHVSRKDNHVSLENGIIAVNRSEHPALIKGLEIMHSKPYGDPYNDWLSKGLRHYFDGSHIQDYDAFCDFIEFKHENIIMNTSSLTASSWR | not soluble |
| ITLNSEPKCINNIKSGQYERYDTNNTELNRVLGGGLVKGSITLISGAPGIGKSTLLLQICQDIALKYGKVLYVSGEESEHQIKMRGDRLGVTSANIYILAETNMESIERHVENIKPAFVIIDSIQTLYKDQITSAPGSVSQVRECANDIMRIAKTDNIPFFIVAHVTKQGELAGPRVLEHIVDTVLTFEGQRTEEFRILRTVKNRFGTTSEIGVFEMKEEGL | not soluble |
| GAITKAVFDNEQGQAQRLQTSSSVEHGQMLFKDANLKTPSDVLNAFAKLDSKMVKSHAAELSQLAERAMTEVMLETDSGKNLKALIGDDAVKSLAVRVVKDYGGGVAAAQKNPEVRINQMQAVFDMEVMHLKAAQRHIEGLASTDLNQGVYAEGLPEDAFNKAGVTNNVERAAAWIINASNSKGNDAENITSLLKEYATNGKDLLNMDNLKELHARLVPNVERDYRGPNISGGTLPSSIGGEGMLKQHIEGFLKENPVADKDLGKHLFAGVIGYHGFTDGNGRMGRMLYAIAELRNDSFNPLAMNAENSLHGIK | soluble |
| MGNCLSTSDPSHEDVSKKLPKALPVDAAFKFPSPLPTFTRGDGFAKGTIDLGGGLEVSQVSTFNKVWSTYEGGPDNLGATFFEPSSIPSGFSILGYYAQPNNRNLFGWVLTARDLSSNTLKPPVDYTLVGNTESLKIKQDGTGYFWQPVPPDGYQAVGLIVTNYSQKPPLDKLRCIRSDLTEQCEADTWIWGTNGVNISNLKPTTRGTQATGVYVGTFTWQTQNSSPPSLSCLKNTKLDFSTMPNGSQIEELFQTFSPCIYFHPDEEYLPSSVTWYFNNGALLYKKGEESKPIPIESNGSNLPQGGSNDGSYWLDLPIDKNGKERVKKGDLQSTKVYLHIKPMLGATFTDISIWIFYPFNGPAKAKVKFVNLPLGRIGEHIGDWEHTTLRISNFTGELWRVFLSQHSGGIWIDACDLEFQDGGNNKFVAYASLHGHAMYPKPGLVLQGDDGVGIRNDTGKGKKVLDTGLGYEVIAAEYDGGGVVEPPWVKYFRKWGPKIDYNVDDEVKSVERILPGLLKKAFVKFVKKIPDEVYGEDGPTGPKLKSNWAGDES | not soluble |
| MGKFMMEKFVQTVSSVNYNKGVFSLYFVGQDQKNMAHGVMAESDNDLELKQVVHMPASGFMYMVSMIKNMLEDPRMEAEFNKLVAAGFLPAGDATANSAEDAAAEEKTAAKKRPAQVKK | not soluble |
| MGSDKIHHHHHHMTGLLSKHDFRVALQEAIAGKASAKAAFSQAWMDGTLQRHHFARWAENHYHYVGPFADYLGYIYNNARDEQDGVKDLLLQSMYEFRHLQEGEAMVSHTDLLIRFAQACGTTRERVESPQACNPITRGMQAWCYATAIRESPVVATAALLVGLASQIPQIYARQIVPLRDPRVYGFSEHEVAFFALRITSDGAHAERGYRIVLDGATTPALQQRCLQFVRWGAEMRYAYAQAIYDQYVAPDLGARRVD | not soluble |
